# Paper PMC5028202 (ACS chemical biology, 2015)
# B1: XCL1 CC5 (A36C A49C), disulfide-locked XCL1dim variant (natural protein, UniProt P47992 22-114, looked up)
# chain: VGSEVSDKRTCVSLTTQRLPVSRIKTYTITEGSLRCVIFITKRGLKVCCDPQATWVRDVVRSMDRKSNTRNNMIQTKPTGTQQSTNTAVTLTG
# Molecular target: the molecule itself
# Assay: NMR structure
protein,measurement,value
B1,stoichiometry N,2
